Test results: paper doi:10.1101/2021.11.24.469940 (bioRxiv, 2021)

Molecular target: the molecule itself
Test: cryo-EM structure

B1: mature wild-type S. cerevisiae PIM1 lacking the mitochondrial targeting sequence (Met182 – Asp1133) (enzyme, UniProt P36775 182-1133, looked up)
chain: MLALPIARRPLFPGFYKAVVISDERVMKAIKEMLDRQQPYIGAFMLKNSEEDTDVITDKNDVYDVGVLAQITSAFPSKDEKTGTETMTALLYPHRRIKIDELFPPNEEKEKSKEQAKDTDTETTVVEDANNPEDQESTSPATPKLEDIVVERIPDSELQHHKRVEATEEESEELDDIQEGEDINPTEFLKNYNVSLVNVLNLEDEPFDRKSPVINALTSEILKVFKEISQLNTMFREQIATFSASIQSATTNIFEEPARLADFAAAVSAGEEDELQDILSSLNIEHRLEKSLLVLKKELMNAELQNKISKDVETKIQKRQREYYLMEQLKGIKRELGIDDGRDKLIDTYKERIKSLKLPDSVQKIFDDEITKLSTLETSMSEFGVIRNYLDWLTSIPWGKHSKEQYSIPRAKKILDEDHYGMVDVKDRILEFIAVGKLLGKVDGKIICFVGPPGVGKTSIGKSIARALNRKFFRFSVGGMTDVAEIKGHRRTYIGALPGRVVQALKKCQTQNPLILIDEIDKIGHGGIHGDPSAALLEVLDPEQNNSFLDNYLDIPIDLSKVLFVCTANSLETIPRPLLDRMEVIELTGYVAEDKVKIAEQYLVPSAKKSAGLENSHVDMTEDAITALMKYYCRESGVRNLKKHIEKIYRKAALQVVKKLSIEDSPTSSADSKPKESVSSEEKAENNAKSSSEKTKDNNSEKTSDDIEALKTSEKINVSISQKNLKDYVGPPVYTTDRLYETTPPGVVMGLAWTNMGGCSLYVESVLEQPLHNCKHPTFERTGQLGDVMKESSRLAYSFAKMYLAQKFPENRFFEKASIHLHCPEGATPKDGPSAGVTMATSFLSLALNKSIDPTVAMTGELTLTGKVLRIGGLREKAVAAKRSGAKTIIFPKDNLNDWEELPDNVKEGLEPLAADWYNDIFQKLFKDVNTKEGNSVWKAEFEILDAKKEKD
In the case of B1, the “stoichiometry N” value is reported as 6.
